Experimental data: patent US20040106198A1, “Inhibition of peptide cleavage in plants” (LARGE SCALE BIOLOGY CORPORATION, priority 2002, published 2004)

Biological target: Nicotianalisin (Nicotiana benthamiana subtilisin-like serine protease) (Nicotiana benthamiana)
Experiment: cell-based or functional assay

Nicotianalisin (Nicotiana benthamiana subtilisin-like serine protease) (Nicotiana benthamiana), sequence (chain, as listed by the source limits assumed): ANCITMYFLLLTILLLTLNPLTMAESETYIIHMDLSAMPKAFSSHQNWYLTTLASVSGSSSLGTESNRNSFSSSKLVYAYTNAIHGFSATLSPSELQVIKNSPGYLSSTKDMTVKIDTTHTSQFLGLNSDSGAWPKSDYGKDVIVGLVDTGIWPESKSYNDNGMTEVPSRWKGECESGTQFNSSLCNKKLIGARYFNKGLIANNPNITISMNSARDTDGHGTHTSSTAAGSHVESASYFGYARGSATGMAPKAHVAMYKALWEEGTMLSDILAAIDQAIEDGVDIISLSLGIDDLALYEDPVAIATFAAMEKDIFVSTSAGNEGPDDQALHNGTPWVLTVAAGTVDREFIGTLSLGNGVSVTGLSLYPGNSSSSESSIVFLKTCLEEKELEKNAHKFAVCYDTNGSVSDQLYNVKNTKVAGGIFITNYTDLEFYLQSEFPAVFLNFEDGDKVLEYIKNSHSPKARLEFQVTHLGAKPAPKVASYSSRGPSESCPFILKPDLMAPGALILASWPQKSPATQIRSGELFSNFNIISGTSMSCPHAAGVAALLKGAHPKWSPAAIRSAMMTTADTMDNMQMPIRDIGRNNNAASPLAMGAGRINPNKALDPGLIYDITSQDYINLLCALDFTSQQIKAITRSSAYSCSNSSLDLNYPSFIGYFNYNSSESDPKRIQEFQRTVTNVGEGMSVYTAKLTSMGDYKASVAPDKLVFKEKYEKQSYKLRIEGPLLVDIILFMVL

| Substance | % Inhibition of protease activity in IF (hydrolysis of 0.3 mM N-Suc-AAPL-p-NA after 30 min with inhibitor at 24 C) |
| --- | --- |
| Pepstatin A (peptide) | 6% |
| Chymostatin (peptide) | 100% |
| Antipain (peptide) | 77% |
| pI-II | 2% |
| Amastatin (peptide) | 5% |

Results, then the substance that gave them:

| % Inhibition of protease activity in IF (hydrolysis of 0.3 mM N-Suc-AAPL-p-NA after 30 min with inhibitor at 24 C) | Substance |
| --- | --- |
| 18% | Leupeptin (peptide) |
| 2% | Cystain |
| 41% | Elastinal (peptide) |
| 30% | potato protease inhibitor I |
